Numbering of substitutions follows the chain as printed. In names and notes the source's numbering stands. One block for each binder: values may come before it.
Assays:
[1] = biological target: T1, human FKBP-12 fused through a flexible Gly/Ser linker to a C-terminal luciferase fragment (human, UniProt P62942 2-108); experiment: split luciferase complementation in live HEK293T cells, rapamycin titrated for 8 h; all productive click beetle green or red fragment pairs (apparent Kd on the rapamycin concentration)
T1 construct: Stands for the set of CLuc-FKBP fusions (GC, RC, FC) expressed in HEK293T cells; also called CLuc-FKBP; not shown: C-terminal luciferase fragment; differs between the pairs pooled in the result (click beetle green or red residues 395-5); flexible Gly/Ser linker with multiple cloning site

[2] = biological target: T1, human FKBP-12 fused through a flexible …; experiment: cell-based or functional assay
[3] = biological target: T1, human FKBP-12 fused through a flexible …; experiment: split luciferase complementation in HEK293T cells, fold induction by rapamycin (FIG. 7)

T1 sequence (P62942 2-108): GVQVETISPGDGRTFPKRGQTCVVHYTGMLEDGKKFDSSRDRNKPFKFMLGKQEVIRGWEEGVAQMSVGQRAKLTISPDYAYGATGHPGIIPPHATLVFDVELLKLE

- Kd [1]: 0.25 nM
- Ki for FK506 inhibition of rapamycin-induced FRB and FKBP binding (luciferase complementation, 10 nM rapamycin) [2]: 1.57 nM
B1: FRB domain of human mTOR (residues 2024-2113) fused through a flexible Gly/Ser linker to an N-terminal luciferase fragment (other)
chain: HEMWHEGLEEASRLYFGERNVKGMFEVLEPLHAMMERGPQTLKETSFNQAYGRDLMEAQEWCRKYMKSGNVKDLTQAWDLYYHVFRRISK
notes: range 2024-2113; Stands for the set of FRB-NLuc fusions (GN, RN, FN) expressed in HEK293T cells; also called FRP; FRB-NLuc; not shown: flexible Gly/Ser linker with multiple cloning site; N-terminal luciferase fragment; differs between the pairs pooled in the result (click beetle green or red residues 2-413)

- binding result [3]: no binding
B2: FRB mutant S2035I fused to an N-terminal luciferase fragment (other)
chain: B1 chain with S12I
notes: range 2024-2113; also called ΔF; mutant S20351 FRB; not shown: flexible Gly/Ser linker with multiple cloning site; N-terminal luciferase fragment of the 'native split luciferase pairs'

— patent US20080233589A1 (WASHINGTON UNIVERSITY IN ST LOUIS, published 2008)
